# Assay results published in US20080286277A1 (GLYCART BIOTECHNOLOGY, published 2008).
# How the values were obtained:
# [1] = target: T1, human epidermal growth factor receptor (EGFR) (human, UniProt P00533 25-1210); assay: flow cytometry on A431 cells
# T1 construct: whole, on cells; also called HER-1; ErbB1
# Procedure: The purified, monomeric humanized antibody variants were tested for binding to human epidermal growth factor receptor (EGFR, also referred to in the literature as HER-1 or ErbB1) on the A431 human epidermal cell line, using a flow cytometry-based assay. 200,000 cells (e.g., from human A431 cell line) in 180 μl FACS buffer (PBS containing 2% FCS and 5 mM EDTA) were transferred to 5 ml polystyrene tubes and 20 μl 10 fold concentrated anti-EGFR antibody (primary antibody) samples (1-5000 ng/ml final concentration) or PBS only were added. After gently mixing the samples, the tubes were incubated at 4° C. for 30 min in the dark. Subsequently, samples were washed twice with FACS buffer and pelleted at 300×g for 3 min. Supernatant was aspirated off and cells were taken up in 50 μl FACS buffer and 2 μl secondary antibody (anti-Fc-specific F(ab′)2-FITC fragments (Jackson Immuno Research Laboratories, USA)) was added and the tubes were incubated at 4° C. for 30 min. Samples were washed twice with FACS buffer and taken up in 500 μl of FACS buffer for analysis by Flow Cytometry. Binding was determined by plotting the geometric mean fluorescence against the antibody concentrations.
# [2] = target: T1, human epidermal growth factor receptor …; assay: flow cytometry on A431 cells, light chain paired with I-HHD
binder,measurement,setting,value
"humanized ICR62 antibody I-HLA2/I-KC (antibody, human IgG1, V domains shown) VH: QVQLVQSGAEVKKPGASVKVSCKASGFTFTDYYMHWVRQAPGQGLEWMGWINPNSGYSTYNEKFQGQVTISADKSISTAYLQWSSLKASDTAMYYCARLSPGGYYVMDAWGQGTTVTVSS VL: DIQMTQSPSSLSASVGDRVTITCRASQGINNYLNWYQQKPGKAPKRLIYNTNNLQTGVPSRFSGSGSGTEFTLTISSLQPEDFATYYCLQHNSFPTFGQGTKLEIKR",EC50,[1],~0.3 µg/mL
"humanized ICR62 antibody I-HLA1/I-KC (antibody, human IgG1, V domains shown) VH: QVQLVQSGAEVKKPGASVKVSCKASGFTFTDYYMHWVRQAPGQGLEWMGWINPNSGYSTYSPSFQGQVTISADKSISTAYLQWSSLKASDTAMYYCARLSPGGYYVMDAWGQGTTVTVSS VL: DIQMTQSPSSLSASVGDRVTITCRASQGINNYLNWYQQKPGKAPKRLIYNTNNLQTGVPSRFSGSGSGTEFTLTISSLQPEDFATYYCLQHNSFPTFGQGTKLEIKR",EC50,[1],~0.3 µg/mL
"humanized ICR62 antibody I-HLA3/I-KC (antibody, human IgG1, V domains shown) VH: QVQLVQSGAEVKKPGASVKVSCKASGYTFTDYYMHWVRQAPGQGLEWMGWINPNSGYSTYSPSFQGQVTISADKSISTAYLQWSSLKASDTAMYYCARLSPGGYYVMDAWGQGTTVTVSS VL: DIQMTQSPSSLSASVGDRVTITCRASQGINNYLNWYQQKPGKAPKRLIYNTNNLQTGVPSRFSGSGSGTEFTLTISSLQPEDFATYYCLQHNSFPTFGQGTKLEIKR","EC50 fold increase relative to ch-ICR62, I-HLA1 and I-HLA2",[1],2 fold
"humanized ICR62 antibody I-HLA4/I-KC (antibody, human IgG1, V domains shown) VH: QVQLVQSGAEVKKPGASVKVSCKASGYTFTDYYMHWVRQAPGQGLEWMGWINPNSGYSTYNEKFQGQVTISADKSISTAYLQWSSLKASDTAMYYCARLSPGGYYVMDAWGQGTTVTVSS VL: DIQMTQSPSSLSASVGDRVTITCRASQGINNYLNWYQQKPGKAPKRLIYNTNNLQTGVPSRFSGSGSGTEFTLTISSLQPEDFATYYCLQHNSFPTFGQGTKLEIKR","EC50 fold increase relative to ch-ICR62, I-HLA1 and I-HLA2",[1],2 fold
"humanized ICR62 antibody I-HLA5/I-KC (antibody, human IgG1, V domains shown) VH: QMQLVQSGPEVKKPGTSVKVSCKASGFTFTDYYMHWVRQAPGQGLEWMGWINPNSGYSTYSPSFQGQVTISADKSISTAYLQWSSLKASDTAMYYCARLSPGGYYVMDAWGQGTTVTVSS VL: DIQMTQSPSSLSASVGDRVTITCRASQGINNYLNWYQQKPGKAPKRLIYNTNNLQTGVPSRFSGSGSGTEFTLTISSLQPEDFATYYCLQHNSFPTFGQGTKLEIKR","EC50 fold increase relative to ch-ICR62, I-HLA1 and I-HLA2",[1],2 fold
"humanized ICR62 antibody I-HLA6/I-KC (antibody, human IgG1, V domains shown) VH: QMQLVQSGPEVKKPGTSVKVSCKASGFTFTDYYMHWVRQAPGQGLEWMGWINPNSGYSTYNEKFQGQVTISADKSISTAYLQWSSLKASDTAMYYCARLSPGGYYVMDAWGQGTTVTVSS VL: DIQMTQSPSSLSASVGDRVTITCRASQGINNYLNWYQQKPGKAPKRLIYNTNNLQTGVPSRFSGSGSGTEFTLTISSLQPEDFATYYCLQHNSFPTFGQGTKLEIKR","EC50 fold increase relative to ch-ICR62, I-HLA1 and I-HLA2",[1],2 fold
"humanized ICR62 antibody I-HLA7/I-KC (antibody, human IgG1, V domains shown) VH: QMQLVQSGPEVKKPGTSVKVSCKASGFTFTDYKIHWVRQARGQRLEWIGWINPNSGYSTYNEKFQGQVTISADKSISTAYLQWSSLKASDTAMYYCARLSPGGYYVMDAWGQGTTVTVSS VL: DIQMTQSPSSLSASVGDRVTITCRASQGINNYLNWYQQKPGKAPKRLIYNTNNLQTGVPSRFSGSGSGTEFTLTISSLQPEDFATYYCLQHNSFPTFGQGTKLEIKR",binding result,[1],binds
"humanized ICR62 antibody I-HHB/I-KC (not glycoengineered) (antibody, V domains shown, also called I-HHB/KC) VH: QVQLVQSGAEVKKPGSSVKVSCKGSGFTFTDYKIHWVRQAPGQGLEWMGYFNPNSGYSTYAQKFQGRVTITADKSTSTAYMELSSLRSEDTAVYYCARLSPGGYYVMDAWGQGTTVTVSS VL: DIQMTQSPSSLSASVGDRVTITCRASQGINNYLNWYQQKPGKAPKRLIYNTNNLQTGVPSRFSGSGSGTEFTLTISSLQPEDFATYYCLQHNSFPTFGQGTKLEIKR",binding result,[1],binds
"humanized ICR62 antibody I-HHD-8/I-KC (antibody, human IgG1, V domains shown) VH: QVQLVQSGAEVKKPGSSVKVSCKASGFTFTDYKIHWVRQAPGQGLEWMGYFNPNSGTSTYAQKFQGRVTITADKSTSTAYMELSSLRSEDTAVYYCARLSPGGYYVMDAWGQGTTVTVSS VL: DIQMTQSPSSLSASVGDRVTITCRASQGINNYLNWYQQKPGKAPKRLIYNTNNLQTGVPSRFSGSGSGTEFTLTISSLQPEDFATYYCLQHNSFPTFGQGTKLEIKR",EC50 fold increase relative to I-HHD parent construct,[1],10 fold
"humanized ICR62 antibody I-HHD-10/I-KC (antibody, human IgG1, V domains shown) VH: QVQLVQSGAEVKKPGSSVKVSCKASGFTFTDYKIHWVRQAPGQGLEWMGYFNPNSGYSTYAQKFQGRVTITADKSTSTAYMELSSLRSEDTAVYYCARLSPGGYYGMDAWGQGTTVTVSS VL: DIQMTQSPSSLSASVGDRVTITCRASQGINNYLNWYQQKPGKAPKRLIYNTNNLQTGVPSRFSGSGSGTEFTLTISSLQPEDFATYYCLQHNSFPTFGQGTKLEIKR",EC50 fold increase relative to I-HHD parent construct,[1],10 fold
"humanized ICR62 antibody I-HHD/I-KC1 (antibody, human IgG1, V domains shown) VH: QVQLVQSGAEVKKPGSSVKVSCKASGFTFTDYKIHWVRQAPGQGLEWMGYFNPNSGYSTYAQKFQGRVTITADKSTSTAYMELSSLRSEDTAVYYCARLSPGGYYVMDAWGQGTTVTVSS VL: DIQMTQSPSSLSASVGDRVTITCRASQGIRNYLNWYQQKPGKAPKRLIYNTNNLQTGVPSRFSGSGSGTEFTLTISSLQPEDFATYYCLQHNSFPTFGQGTKLEIKR",binding result,[2],binds
"humanized ICR62 antibody I-HHD/I-KC2 (antibody, human IgG1, V domains shown) VH: QVQLVQSGAEVKKPGSSVKVSCKASGFTFTDYKIHWVRQAPGQGLEWMGYFNPNSGYSTYAQKFQGRVTITADKSTSTAYMELSSLRSEDTAVYYCARLSPGGYYVMDAWGQGTTVTVSS VL: DIQMTQSPSSLSASVGDRVTITCRASQGINNWLNWYQQKPGKAPKRLIYNTNNLQTGVPSRFSGSGSGTEFTLTISSLQPEDFATYYCLQHNSFPTFGQGTKLEIKR",binding result,[2],binds
"humanized ICR62 antibody I-HHD/I-KC3 (antibody, human IgG1, V domains shown) VH: QVQLVQSGAEVKKPGSSVKVSCKASGFTFTDYKIHWVRQAPGQGLEWMGYFNPNSGYSTYAQKFQGRVTITADKSTSTAYMELSSLRSEDTAVYYCARLSPGGYYVMDAWGQGTTVTVSS VL: DIQMTQSPSSLSASVGDRVTITCRASQGINNYLGWYQQKPGKAPKRLIYNTNNLQTGVPSRFSGSGSGTEFTLTISSLQPEDFATYYCLQHNSFPTFGQGTKLEIKR",EC50 fold increase relative to I-KC (paired with I-HHD),[1],10 fold
"humanized ICR62 antibody I-HHF/I-KC (antibody, human IgG1, V domains shown) VH: QVQLVQSGAEVKKPGSSVKVSCKGSGFTFTDYKIHWVRQAPGQGLEWMGYFNPNSGYSNYAQKFQGRVTITADKSTSTAYMELSSLRSEDTAVYYCARLSPGGYYVMDAWGQGTTVTVSS VL: DIQMTQSPSSLSASVGDRVTITCRASQGINNYLNWYQQKPGKAPKRLIYNTNNLQTGVPSRFSGSGSGTEFTLTISSLQPEDFATYYCLQHNSFPTFGQGTKLEIKR",binding result,[1],binds
"humanized ICR62 antibody I-HHG/I-KC (antibody, human IgG1, V domains shown) VH: QVQLVQSGAEVKKPGSSVKVSCKGSGFTFTDYKIHWVRQAPGQGLEWMGYFNPNSGYATYAQKFQGRVTITADKSTSTAYMELSSLRSEDTAVYYCARLSPGGYYVMDAWGQGTTVTVSS VL: DIQMTQSPSSLSASVGDRVTITCRASQGINNYLNWYQQKPGKAPKRLIYNTNNLQTGVPSRFSGSGSGTEFTLTISSLQPEDFATYYCLQHNSFPTFGQGTKLEIKR",binding result,[1],binds
"humanized ICR62 antibody I-HLA8/I-KC (antibody, human IgG1, V domains shown) VH: QMQLVQSGPEVKKPGTSVKVSCKASGFTFTDYKIHWVRQAPGQGLEWMGYFNPNSGYSTYAQKFQGRVTITADKSTSTAYMELSSLRSEDTAVYYCARLSPGGYYVMDAWGQGTTVTVSS VL: DIQMTQSPSSLSASVGDRVTITCRASQGINNYLNWYQQKPGKAPKRLIYNTNNLQTGVPSRFSGSGSGTEFTLTISSLQPEDFATYYCLQHNSFPTFGQGTKLEIKR",EC50 fold decrease relative to ch-ICR62,[1],2 fold
"humanized ICR62 antibody I-HLA9/I-KC (antibody, human IgG1, V domains shown) VH: EVQLVQSGAEVKKPGESLKISCKGSGYSFTDYKIHWVRQAPGQGLEWMGYFNPNSGYSTYAQKFQGRVTITADKSTSTAYMELSSLRSEDTAVYYCARLSPGGYYVMDAWGQGTTVTVSS VL: DIQMTQSPSSLSASVGDRVTITCRASQGINNYLNWYQQKPGKAPKRLIYNTNNLQTGVPSRFSGSGSGTEFTLTISSLQPEDFATYYCLQHNSFPTFGQGTKLEIKR",binding result,[1],binds
"humanized ICR62 antibody I-HHC/I-KB (antibody, human IgG1, V domains shown, I-HHC was also paired with I-KA and the chimeric light chain) VH: QVQLVQSGAEVKKPGSSVKVSCKGSGFTFTDYKIHWVRQAPGQGLEWMGYFNPNSGYSTYNEKFKSRVTITADKSTSTAYMELSSLRSEDTAVYYCARLSPGGYYVMDAWGQGTTVTVSS VL: DIQMTQSPSSLSASVGDRVTITCKASQNINNYLNWYQQKPGKAPKRLIYNTNNLQTGVPSRFSGSGSGTEYTLTISSLQPEDFATYYCLQHNSFPTFGQGTKLEIKR",binding result,[1],binds
"humanized ICR62 antibody I-HLA/I-KA (antibody, human IgG1, V domains shown) VH: QVQLVQSGAEVKKPGASVKVSCKASGFTFTDYYMHWVRQAPGQGLEWMGWINPNSGYSTYAQKFQGRVTMTADTSISTAYMELSRLRSDDTAVYYCARLSPGGYYVMDAWGQGTTVTVSS VL: DIQMTQSPSSLSASVGDRVTITCRASQGINNYLNWYQQKPGKAPKRLIYNTNNLQTGVPSRFSGSGSGTEYTLTISSLQPEDFATYYCLQHNSFPTFGQGTKLEIKR",binding result,[1],binds
"humanized ICR62 antibody I-HLA/I-KB (antibody, human IgG1, V domains shown) VH: QVQLVQSGAEVKKPGASVKVSCKASGFTFTDYYMHWVRQAPGQGLEWMGWINPNSGYSTYAQKFQGRVTMTADTSISTAYMELSRLRSDDTAVYYCARLSPGGYYVMDAWGQGTTVTVSS VL: DIQMTQSPSSLSASVGDRVTITCKASQNINNYLNWYQQKPGKAPKRLIYNTNNLQTGVPSRFSGSGSGTEYTLTISSLQPEDFATYYCLQHNSFPTFGQGTKLEIKR",binding result,[1],binds
"chimeric rat-human ICR62 antibody (antibody, human IgG1, V domains shown, also called ch-ICR62; chimeric ICR62) VH: QVNLLQSGAALVKPGASVKLSCKGSGFTFTDYKIHWVKQSHGKSLEWIGYFNPNSGYSTYNEKFKSKATLTADKSTDTAYMELTSLTSEDSATYYCTRLSPGGYYVMDAWGQGASVTVSS VL: DIQMTQSPSFLSASVGDRVTINCKASQNINNYLNWYQQKLGEAPKRLIYNTNNLQTGIPSRFSGSGSGTDYTLTISSLQPEDFATYFCLQHNSFPTFGAGTKLELKR",EC50,[1],~0.3 µg/mL
same,EC50 fold lower relative to I-HLA4,[1],2 fold
